# Target: biotinylated HLA-A*0201-…
# Assay: SPR; BIAcore T100, CM5 chip; A2-EAA on the chip, MEL5 injected (ten serial dilutions, 45 uL/min); KDs by equilibrium analysis in triplicate at 5, 10, 15, 20, 25 and 30°C, nonlinear van't Hoff fit with T0 = 298 K; 10 mM HEPES pH 7.4, 150 mM NaCl, 3 mM EDTA, 0.005% P20; HLA-A*0201-… as negative control surface
substance,measurement,value
MEL5 TCR,dH,-14 kcal/mol
